Our source for the Th-17+ cell expansion (IL-17-producing cells) in PBMC suspensions after 3 days, normalized to IL-23 only = 1 (normalized cell count (IL-23 only = 1)) and Th-17+ cell expansion in separated T-cell samples after 3 days, normalized to IL-23 only = 1 (normalized cell count (IL-23 only = 1)) values is patent EP2922560B1.

The assay concerns the target native human IL-23 receptor on the surface of cultured human cells (K-562, THP-1, Jurkat) and primary human T-cells (human) (UniProt Q5VWK5). The experiment in a line: cell-based or functional assay.

Sequence of native human IL-23 receptor on the surface of cultured human cells (K-562, THP-1, Jurkat) and primary human T-cells (human) (Q5VWK5 24-629): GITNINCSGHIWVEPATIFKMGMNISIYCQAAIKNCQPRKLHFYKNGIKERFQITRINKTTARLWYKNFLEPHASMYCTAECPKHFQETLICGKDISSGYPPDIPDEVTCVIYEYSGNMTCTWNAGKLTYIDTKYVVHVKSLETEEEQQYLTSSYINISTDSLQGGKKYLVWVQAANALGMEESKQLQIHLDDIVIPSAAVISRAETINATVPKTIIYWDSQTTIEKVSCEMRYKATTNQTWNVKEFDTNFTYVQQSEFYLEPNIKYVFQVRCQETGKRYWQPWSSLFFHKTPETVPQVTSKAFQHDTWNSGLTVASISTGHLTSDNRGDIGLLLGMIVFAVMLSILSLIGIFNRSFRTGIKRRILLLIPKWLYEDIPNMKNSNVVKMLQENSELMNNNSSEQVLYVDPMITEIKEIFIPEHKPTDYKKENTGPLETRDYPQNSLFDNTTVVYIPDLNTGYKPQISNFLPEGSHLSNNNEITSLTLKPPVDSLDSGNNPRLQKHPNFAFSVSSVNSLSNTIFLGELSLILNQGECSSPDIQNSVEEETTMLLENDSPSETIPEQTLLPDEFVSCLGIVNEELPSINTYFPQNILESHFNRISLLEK

The substance “His6-ABDwt-TolA-AVI (from UniProt P19934 131-421)” gave a Th-17+ cell expansion (IL-17-producing cells) in PBMC suspensions after 3 days, normalized to IL-23 only = 1 (normalized cell count (IL-23 only = 1)) of 0.88 and a Th-17+ cell expansion in separated T-cell samples after 3 days, normalized to IL-23 only = 1 (normalized cell count (IL-23 only = 1)) of 0.99.
